{
  "source": "patent US20180094062A1",
  "about": "(Hoffmann-La Roche, published 2018)",
  "key": {"[1]": {"molecular_target": "T1, human HER3, full length, on cells (T47D, MCF7, transfected HEK293) (human, UniProt P21860 20-1342)", "T1 construct": "endogenous on T47D and MCF7 tumor cells, transient full length in HEK293 (formalin fixed for IHC); also called expressed HER3 ECD", "assay": "FACS on T47D cells, 0 minutes incubation"}, "[2]": {"molecular_target": "T2, human recombinant HER3 Extracellular Domain (HER3 ECD) (human, UniProt P21860 20-643)", "T2 construct": "68 kDa; also called human-Her3-ECD", "assay": "SPR Biacore T100, antibody captured, 25 C"}, "[3]": {"molecular_target": "T3, HER3 ECD-HRG complex (Heregulin-activated Her-3 ECD) (human, UniProt P21860 20-643)", "T3 construct": "receptor-ligand complex made by preincubating HER3 ECD with a five-fold molar excess of Heregulin; also called Heregulin/Her-3 ECD; Heregulin-complexed Her-3 ECD", "assay": "SPR Biacore 3000, antibody captured, 25 C", "description": "(§1) A CM5 series sensor was mounted into the system and was normalized in HBS-ET buffer (10 mM HEPES pH 7.4, 150 mM NaCl, 3 mM EDTA, 0.005% w/v Tween 20) according to the manufacturer's instructions. The sample buffer was the system buffer supplemented with 1 mg/ml CMD (Carboxymethyldextran). The system operated at 25° C. 10000 RU RAM-Fey (relative units of Fey-fragment Rabbit Anti-Mouse IgG/Jackson Laboratories) were immobilized according to the manufacturer's instructions using EDC/NHS chemistry on all flow cells. The sensor was deactivated using 1M ethanolamine."}, "[4]": {"molecular_target": "T4, HER1 (EGFR) ECD peptide hairpin, overlapping immobilized 15-mer peptides (human, UniProt P00533 265-283, limits assumed)", "T4 construct": "domain: peptide hairpin (β-hairpin); CelluSpots 15-mer library; cysteines replaced by serines; also called hairpin motive in EGFR", "T4 peptide (looked up)": "PPLMLYNPTTYQMDVNPEG", "assay": "CelluSpots array of overlapping 15-mer peptides"}, "[5]": {"molecular_target": "T5, HER2 ECD peptide hairpin, overlapping immobilized 15-mer peptides (human, UniProt P04626 269-287, limits assumed)", "T5 construct": "domain: peptide hairpin (β-hairpin); CelluSpots 15-mer library; cysteines replaced by serines; also called hairpin motive in the HER2 ECD", "T5 peptide (looked up)": "PALVTYNTDTFESMPNPEG", "assay": "CelluSpots array of overlapping 15-mer peptides"}, "[6]": {"molecular_target": "T2, human recombinant HER3 Extracellular …", "assay": "SPR Biacore T100, antibody captured, 25 C, Langmuir fit", "description": "as §1, with “(Carboxymethyldextran, Sigma #86524).” for “(Carboxymethyldextran).”, “6500” for “10000”, “RAM-Fcγ” for “RAM-Fey”, “Fcγ-fragment RamlgG, GE Healthcare)” for “Fey-fragment Rabbit Anti-Mouse IgG/Jackson Laboratories)”, “all four” for “all”\n(§2) Analytes in solution were injected at different concentration steps of 0 nM, 1.1 nM, 3.7 nM, 11.1 nM, 33.1 nM and 90 nM for 3.5 min. The dissociation was monitored for 15 min. Where possible, kinetic signatures were evaluated according to a Langmuir fit."}, "[7]": {"molecular_target": "T6, recombinant Thermus thermophilus SlyD FKBP-Her3 (TtSlyD-FKBP-Her3)", "T6 construct": "expressed in E. coli, the N-terminal methionine can be present or not; also called thermo SlyD-Her3; T.T.SlyD-Her3", "T6 chain": "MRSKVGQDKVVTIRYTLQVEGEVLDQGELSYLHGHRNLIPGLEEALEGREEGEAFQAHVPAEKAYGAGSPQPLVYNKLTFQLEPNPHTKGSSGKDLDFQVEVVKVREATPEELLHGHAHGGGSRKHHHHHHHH", "assay": "SPR Biacore T100, antibody captured, 25 C, Langmuir fit", "description": "as §1, with “(Carboxymethyldextran, Sigma #86524).” for “(Carboxymethyldextran).”, “6500” for “10000”, “RAM-Fcγ” for “RAM-Fey”, “Fcγ-fragment RamlgG, GE Healthcare)” for “Fey-fragment Rabbit Anti-Mouse IgG/Jackson Laboratories)”, “all four” for “all”\nas §2"}, "[8]": {"molecular_target": "T7, HER1, full length, on transfected HEK293 cells (human, UniProt P00533 25-1210)", "T7 construct": "HEK293 transiently transfected with a plasmid coding for full length HER1; also called EGFR", "assay": "IHC on HEK293 cells transiently transfected with full length HER1", "description": "All selected clones were tested for reactivity and specificity in IHC. […] After an additional fixation in formalin overnight the Agarose blocks were embedded in paraffin. Untransfected HEK293 cells were used as negative controls and treated accordingly to the transfected cells. After paraffin embedding 3 μm thin sections were prepared using a microtome. The sections were mounted on glass microscopy slides and dried for 2 h. All further steps of the immunohistochemical staining procedure were carried out using a Ventana Benchmark XT. The slides were dewaxed and antigen retrieval was performed by applying heat for 1 hour. For antigen retrieval the Ventana buffer CC1 was used. The antibodies were used at a concentration of 1 μg/ml. For the detection of bound antibody the Ventana UltraView detection kit was used."}, "[9]": {"molecular_target": "T8, HER4 ECD peptide hairpin (β-hairpin of HER4), overlapping immobilized 15-mer peptides (human)", "T8 construct": "CelluSpots library of 15-mers as for HER3; cysteines replaced by serines; also called HER4 β-hairpin", "T8 peptide": "PQTFVYNPTTFQLEHNFNA", "assay": "CelluSpots array of overlapping 15-mer peptides of the HER family hairpins, chemiluminescence"}, "[10]": {"molecular_target": "T3, HER3 ECD-HRG complex …", "assay": "SPR Biacore 3000, antibody captured, Biacore two-state model, apparent KD from ka1 and kd2, 25 C; apparent KD of the two-state model, kd2 / ka1", "description": "as §1"}},
  "note": "“And” between values parts separate entries of the source, which are not always exact repeats. Equal values may be shown once.",
  "data": [
    {"binder": "anti-HER3 antibody M-08-11 (antibody, V domains shown, mouse monoclonal antibody from hybridoma, tested as hybridoma supernatant or as antibody; also called M-011) VH: QAYLQQSGAELMRPGASVRMSCQASGYTFTSYTIHWLKQTPRQGLEWIGAIYPRNGDFSYNQKFKDKASLTVDTSSSTAYMHLSSLTSEDSAVYFCARTINYGDWFAYWGQGTLVTVSA VL: DIQMIQSPASLFVSEGETVIITCRASENIYSNLAWYHQKKGKSPQVLVYAAIKLADGVPLRFSGSGSGTQFSLKINSLQSEDFGSYYCQHFWGPPYTFGSGTNLEIK", "values": [
      {"measurement": "fold binding level with HRG against without HRG", "setting": "[1]", "result": "≥ 2", "unit": "fold"},
      {"measurement": "MR (Molar Ratio)", "setting": "[2]", "result": 0.5},
      {"measurement": "MR (Molar Ratio)", "setting": "[3]", "result": 1.1},
      {"measurement": "binding result", "setting": "[4]", "result": "no binding (tested: 1 µg/mL)"},
      {"measurement": "binding result", "setting": "[5]", "result": "no binding (tested: 1 µg/mL)"},
      {"measurement": "Kd", "setting": "[6]", "result": "1.08 nM and 1 nM"},
      {"measurement": "koff", "setting": "[6]", "result": "5.32e-05", "unit": "s⁻¹"},
      {"measurement": "kon", "setting": "[6]", "result": 49300, "unit": "M⁻¹ s⁻¹"},
      {"measurement": "Kd", "setting": "[7]", "result": "1.6 nM and 2 nM"},
      {"measurement": "koff", "setting": "[7]", "result": 0.00014, "unit": "s⁻¹"},
      {"measurement": "kon", "setting": "[7]", "result": 87000, "unit": "M⁻¹ s⁻¹"},
      {"measurement": "binding result", "setting": "[8]", "result": "no binding"},
      {"measurement": "binding result", "setting": "[9]", "result": "no binding"},
      {"measurement": "Kd", "setting": "[10]", "result": 18, "unit": "nM"}
    ]}
  ]
}
